Among the data in patent US20210087296A1 (published 2021) are EC50 values, retold here.

Sequences and labels used below:
B1: Fab R3C8 (Fab, V domains shown)
VH: EVQLVESGGGLVQPGGSLRLSCAASGFNFSSSSIHWVRQAPGKGLEWVASIYPSYSYTYYADSVKGRFTISADTSKNTAYLQMNSLRAEDTAVYYCARHCLLRSRRCEMSTKTRELNVYRYAMDYWGQGTLVTVSS
VL: DIQMTQSPSSLSASVGDRVTITCRASQSVSSAVAWYQQKPGKAPKLLIYSASSLYSGVPSRFSGSRSGTDFTLTISSLQPEDFATYYCQQWPVGSSYPITFGQGTKVEIKR
B2: Fab 3A2 (Fab, V domains shown)
VH: EVQLVESGGGLVQPGGSLRLSCAASGFNLSSSSMHWVRQAPGKGLEWVASIYPSYSYTYYADSVKGRFTISADTSKNTAYLQMNSLRAEDTAVYYCARVKLQKDKSHQWIRNLVATPYGRYVMDYWGQGTLVTVSS
VL: DIQMTQSPSSLSASVGDRVTITCRASQSVSSAVAWYQQKPGKAPKLLIYSASSLYSGVPSRFSGSRSGTDFTLTISSLQPEDFATYYCQQYGYPITFGQGTKVEIKR
B3: Fab R2C14 (Fab, V domains shown)
VH: EVQLVESGGGLVQPGGSLRLSCAASGFNIYSSSIHWVRQAPGKGLEWVASIYSYSGYTYYADSVKGRFTISADTSKNTAYLQMNSLRAEDTAVYYCARVSNRYNRSSASIAGLQLFRPYGMDYWGQGTLVTVSS
VL: DIQMTQSPSSLSASVGDRVTITCRASQSVSSAVAWYQQKPGKAPKLLIYSASSLYSGVPSRFSGSRSGTDFTLTISSLQPEDFATYYCQQSSYSLITFGQGTKVEIKR

This test deals with matrix metalloproteinase-14 catalytic domain (cdMMP-14) (UniProt P50281 114-287, biotinylated with EZ-Link Sulfo-NHS-LC-Biotin for ELISA; amine-coupled to CM5 chip for SPR). The test is described as follows: ELISA. Background: In an ELISA, binding on a coated surface is turned into a signal by an enzyme label.
Molecule B1 showed a half-maximal effective concentration (EC50) of over 1000 nM.
Under B2 stands 4 nM; under B3, over 1000 nM.

As a reminder, the EC50 is the concentration at which the effect is half-maximal. High values mean lower potency in that assay, low ones higher potency in that assay.
